Series [1] has as its system HeLa Kyoto. The experiment in a line: thermal stability score vs G1/S (z-score of summed log2 fold changes over temperatures); higher = more thermally stable than in G1/S.
Series [2] concerns HeLa Kyoto. Put plainly: solubility in G1/S (NP-40 vs SDS abundance) (log2 ratio); higher = more soluble. Particulars: cell cycle stage: G1/S.
In series [3] the test system is HeLa Kyoto. The experiment in a line: solubility change mitosis vs G1/S (difference of NP-40 vs SDS log2 ratios) (log2 ratio difference); higher = more soluble in mitosis.
For series [4], the system named is HeLa Kyoto. Put plainly: melting temperature (median over replicates), in situ; higher = more thermally stable.
[5] abbreviates: cell cycle stage: early G1 (4.5 h after nocodazole release).
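Wherever melting temperature (median over replicates), in situ is given: HeLa Kyoto cells synchronized by double thymidine or nocodazole block, proteins quantified by TMT10plex mass spectrometry, three independent biological replicates.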
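Wherever solubility change mitosis vs G1/S (difference of NP-40 vs SDS log2 ratios) is given: synchronized HeLa Kyoto cells (double thymidine block for G1/S, nocodazole release for mitosis), protein amounts in NP-40 versus SDS lysates quantified by mass spectrometry, three biological replicates.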
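Wherever solubility in G1/S (NP-40 vs SDS abundance) is given: HeLa Kyoto cells arrested at G1/S by double thymidine block, proteins quantified by TMT10plex mass spectrometry in mild NP-40 versus SDS extracts, three biological replicates.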
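Wherever thermal stability score vs G1/S (z-score of summed log2 fold changes over temperatures) is given: synchronized HeLa Kyoto cells, proteins quantified by TMT10plex mass spectrometry, three biological replicates, mitosis taken 0.5 h after nocodazole release, G1/S directly after double thymidine block.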

For “MGKSDFLTPKAIANRIKSKGLQKLRWYCQMCQKQCRDENGFKCHCMSESHQRQLLLASENPQQFMDYFSEEFRNDFLELLRRRFGTKRVHNNIVYNEYISHREHIHMNATQWETLTDFTKWLGREGLCKVDETPKGWYIQYIDRDPETIRRQLELEKKKKQDLDDEEKTAKFIEEQVRRGLEGKEQEVPTFTELSRENDEEKVTFNLSKGACSSSGATSSKSSTLGPSALKTIGSSASVKRKESSQSSTQSKEKKKKKSALDEIMEIEEEKKRTARTDYWLQPEIIVKIITKKLGEKYHKKKAIVKEVIDKYTAVVKMIDSGDKLKLDQTHLETVIPAPGKRILVLNGGYRGNEGTLESINEKTFSATIVIETGPLKGRRVEGIQYEDISKLA [KIN]”, the thermal stability score was found to be 0.727 in the series with HeLa Kyoto [1] (setting [5]) and 1.45 in the series on HeLa Kyoto [1] (cell cycle stage: mitosis). Further, the “solubility in G1/S (log2)” value in the series with HeLa Kyoto [2] was -0.339. Besides, the “solubility change mitosis (log2)” value in the series with HeLa Kyoto [3] was found to be 0.174. The melting temperature was found to be 51.1 °C in the series with HeLa Kyoto [4] (cell cycle stage: G1/S) and 49.3 °C in the series with HeLa Kyoto [4] (cell cycle stage: mitosis).
In the case of “MGLLDLCEEVFGTADLYRVLGVRREASDGEVRRGYHKVSLQVHPDRVGEGDKEDATRRFQILGKVYSVLSDREQRAVYDEQGTVDEDSPVLTQDRDWEAYWRLLFKKISLEDIQAFEKTYKGSEEELADIKQAYLDFKGDMDQIMESVLCVQYTEEPRIRNIIQQAIDAGEVPSYNAFVKESKQKMNARKRRAQEEAKEAEMSRKELGLDEGVDSLKAAIQSRQKDRQKEMDNFLAQMEAKYCKSSKGGGKKSALKKEKK [DNAJC9]”, the thermal stability score in the series on HeLa Kyoto [1] (setting [5]) was -3.62; in the series on HeLa Kyoto [1] (cell cycle stage: mitosis), -5.66. The “solubility in G1/S (log2)” value in the series with HeLa Kyoto [2] amounted to 0.502. Further, the “solubility change mitosis (log2)” value in the series on HeLa Kyoto [3] was 0.21. For the same sequence, the values for the melting temperature in the series with HeLa Kyoto [4] (cell cycle stage: G1/S) and with HeLa Kyoto [4] (cell cycle stage: mitosis) were 52 °C and 51.8 °C, respectively.
“MGLLRGGLPCARAMARLGAVRSHYCALLLAAALAVCAFYYLGSGRETFSSATKRLKEARAGAPAAPSPPALELARGSVAPAPGAKAKSLEGGGAGPVDYHLLMMFTKAEHNAALQAKARVALRSLLRLAKFEAHEVLNLHFVSEEASREVAKGLLRELLPPAAGFKCKVIFHDVAVLTDKLFPIVEAMQKHFSAGLGTYYSDSIFFLSVAMHQIMPKEILQIIQLDLDLKFKTNIRELFEEFDSFLPGAIIGIAREMQPVYRHTFWQFRHENPQTRVGGPPPEGLPGFNSGVMLLNLEAMRQSPLYSRLLEPAQVQQLADKYHFRGHLGDQDFFTMIGMEHPKLFHVLDCTWNRQLCTWWRDHGYSDVFEAYFRCEGHVKIYHGNCNTPIPED [XXYLT1]”: the thermal stability score in the series on HeLa Kyoto [1] (setting [5]) is -1.07; in the series with HeLa Kyoto [1] (cell cycle stage: mitosis), -1.02. For the same sequence, the “solubility in G1/S (log2)” value with HeLa Kyoto [2] is -0.0927. In addition, the “solubility change mitosis (log2)” value in the series with HeLa Kyoto [3] is -0.0858. The melting temperature with HeLa Kyoto [4] (cell cycle stage: G1/S) was found to be 54.9 °C; with HeLa Kyoto [4] (cell cycle stage: mitosis) it was 54.7 °C.
With “MGLQACLLGLFALILSGKCSYSPEPDQRRTLPPGWVSLGRADPEEELSLTFALRQQNVERLSELVQAVSDPSSPQYGKYLTLENVADLVRPSPLTLHTVQKWLLAAGAQKCHSVITQDFLTCWLSIRQAELLLPGAEFHHYVGGPTETHVVRSPHPYQLPQALAPHVDFVGGLHRFPPTSSLRQRPEPQVTGTVGLHLGVTPSVIRKRYNLTSQDVGSGTSNNSQACAQFLEQYFHDSDLAQFMRLFGGNFAHQASVARVVGQQGRGRAGIEASLDVQYLMSAGANISTWVYSSPGRHEGQEPFLQWLMLLSNESALPHVHTVSYGDDEDSLSSAYIQRVNTELMKAAARGLTLLFASGDSGAGCWSVSGRHQFRPTFPASSPYVTTVGGTSFQEPFLITNEIVDYISGGGFSNVFPRPSYQEEAVTKFLSSSPHLPPSSYFNASGRAYPDVAALSDGYWVVSNRVPIPWVSGTSASTPVFGGILSLINEHRILSGRPPLGFLNPRLYQQHGAGLFDVTRGCHESCLDEEVEGQGFCSGPGWDPVTGWGTPNFPALLKTLLNP [TPP1]”, the thermal stability score was -0.723 in the series on HeLa Kyoto [1] (setting [5]) and -1.17 with HeLa Kyoto [1] (cell cycle stage: mitosis). Besides, in the series with HeLa Kyoto [2], the “solubility in G1/S (log2)” value was 0.472. Further, in the series with HeLa Kyoto [3], the “solubility change mitosis (log2)” value is -0.0648. Besides, the melting temperature in the series with HeLa Kyoto [4] (cell cycle stage: G1/S) is 53.8 °C; in the series with HeLa Kyoto [4] (cell cycle stage: mitosis), 53.9 °C.
As for “MGLTVSALFSRIFGKKQMRILMVGLDAAGKTTILYKLKLGEIVTTIPTIGFNVETVEYKNICFTVWDVGGQDKIRPLWRHYFQNTQGLIFVVDSNDRERVQESADELQKMLQEDELRDAVLLVFANKQDMPNAMPVSELTDKLGLQHLRSRTWYVQATCATQGTGLYDGLDWLSHELSKR [ARF5]”, the figures for the thermal stability score in the series on HeLa Kyoto [1] (setting [5]) and in the series with HeLa Kyoto [1] (cell cycle stage: mitosis) were 1.02 and 1.14, respectively. Besides, in the series on HeLa Kyoto [2], the “solubility in G1/S (log2)” value was -0.196. Further, in the series on HeLa Kyoto [3], the “solubility change mitosis (log2)” value was -0.212. Besides, the melting temperature with HeLa Kyoto [4] (cell cycle stage: G1/S) came to 55.4 °C; in the series on HeLa Kyoto [4] (cell cycle stage: mitosis) it was 55.9 °C.
“MGMWASLDALWEMPAEKRIFGAVLLFSWTVYLWETFLAQRQRRIYKTTTHVPPELGQIMDSETFEKSRLYQLDKSTFSFWSGLYSETEGTLILLFGGIPYLWRLSGRFCGYAGFGPEYEITQSLVFLLLATLFSALTGLPWSLYNTFVIEEKHGFNQQTLGFFMKDAIKKFVVTQCILLPVSSLLLYIIKIGGDYFFIYAWLFTLVVSLVLVTIYADYIAPLFDKFTPLPEGKLKEEIEVMAKSIDFPLTKVYVVEGSKRSSHSNAYFYGFFKNKRIVLFDTLLEEYSVLNKDIQEDSGMEPRNEEEGNSEEIKAKVKNKKQGCKNEEVLAVLGHELGHWKLGHTVKNIIISQMNSFLCFFLFAVLIGRKELFAAFGFYDSQPTLIGLLIIFQFIFSPYNEVLSFCLTVLSRRFEFQADAFAKKLGKAKDLYSALIKLNKDNLGFPVSDWLFSMWHYSHPPLLERLQALKTMKQH [ZMPSTE24]”: the thermal stability score is -0.261 in the series on HeLa Kyoto [1] (setting [5]) and -0.906 in the series on HeLa Kyoto [1] (cell cycle stage: mitosis). In addition, the “solubility in G1/S (log2)” value with HeLa Kyoto [2] is -0.147. Also, the “solubility change mitosis (log2)” value with HeLa Kyoto [3] was -0.171. Further, the melting temperature with HeLa Kyoto [4] (cell cycle stage: G1/S) came to 55.2 °C; in the series on HeLa Kyoto [4] (cell cycle stage: mitosis) it was 54.4 °C.
